Source: PMC10212944

B1: (dT)97 (ssDNA)
DNA: TTTTTTTTTTTTTTTTTTTTTTTTTTTTTTTTTTTTTTTTTTTTTTTTTTTTTTTTTTTTTTTTTTTTTTTTTTTTTTTTTTTTTTTTTTTTTTTTT

Assays:
RPA S384D [1] = target: T1, RPA S384D (Homo sapiens, UniProt P27694;P15927;P35244 1-616;1-270;1-121, S384D); assay: competition (facilitated exchange, stopped-flow FRET); displaces Cy3/Cy5-RPA, kFE 0.9 s-1; Stopped flow: 30 mM HEPES pH 7.8, 100 mM KCl, 5 mM MgCl2, 6% glycerol, 1 mM b-ME, 25 C; anisotropy: 50 mM Tris-acetate pH 7.5, 50 mM KCl, 5 mM MgCl2, 1 mM DTT; conditions: protein: recombinant; copies: 1;1;1
T1 sequence (P27694 whole entry S384D, chain 1 of 3): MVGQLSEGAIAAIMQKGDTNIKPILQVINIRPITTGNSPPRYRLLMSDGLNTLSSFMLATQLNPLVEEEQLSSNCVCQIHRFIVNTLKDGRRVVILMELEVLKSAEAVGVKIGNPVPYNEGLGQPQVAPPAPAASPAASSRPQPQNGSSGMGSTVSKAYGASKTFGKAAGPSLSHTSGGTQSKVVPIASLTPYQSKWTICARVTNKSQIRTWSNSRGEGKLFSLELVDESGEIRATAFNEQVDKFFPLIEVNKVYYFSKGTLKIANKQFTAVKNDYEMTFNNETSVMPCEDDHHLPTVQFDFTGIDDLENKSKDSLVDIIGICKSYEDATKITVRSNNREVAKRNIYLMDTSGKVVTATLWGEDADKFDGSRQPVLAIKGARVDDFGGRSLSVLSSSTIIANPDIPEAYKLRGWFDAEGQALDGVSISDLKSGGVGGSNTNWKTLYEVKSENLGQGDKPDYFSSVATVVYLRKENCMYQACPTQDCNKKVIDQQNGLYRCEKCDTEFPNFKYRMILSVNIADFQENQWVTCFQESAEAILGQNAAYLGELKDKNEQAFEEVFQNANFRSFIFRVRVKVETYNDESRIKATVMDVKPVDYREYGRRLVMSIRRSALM
T1 sequence (P15927 whole entry, chain 2 of 3): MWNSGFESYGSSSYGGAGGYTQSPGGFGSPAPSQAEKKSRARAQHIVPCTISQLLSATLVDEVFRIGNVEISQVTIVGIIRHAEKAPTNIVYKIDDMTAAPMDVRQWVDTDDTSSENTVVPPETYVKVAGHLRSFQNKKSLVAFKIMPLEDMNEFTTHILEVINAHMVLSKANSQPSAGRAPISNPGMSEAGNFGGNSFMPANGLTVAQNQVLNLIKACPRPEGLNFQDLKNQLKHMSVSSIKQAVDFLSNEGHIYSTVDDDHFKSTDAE
T1 sequence (P35244 whole entry, chain 3 of 3): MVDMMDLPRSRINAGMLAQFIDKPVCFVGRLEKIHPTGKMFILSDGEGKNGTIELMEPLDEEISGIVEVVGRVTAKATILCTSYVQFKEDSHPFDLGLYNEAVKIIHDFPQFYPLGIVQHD

RPA (wild type) [2] = target: T2, RPA (wild type) (Homo sapiens, UniProt P27694;P15927;P35244 1-616;1-270;1-121); assay: competition (facilitated exchange, stopped-flow FRET); displaces Cy3/Cy5-RPA, kFE 1.8 s-1; Stopped flow: 30 mM HEPES pH 7.8, 100 mM KCl, 5 mM MgCl2, 6% glycerol, 1 mM b-ME, 25 C; anisotropy: 50 mM Tris-acetate pH 7.5, 50 mM KCl, 5 mM MgCl2, 1 mM DTT; conditions: protein: recombinant; copies: 1;1;1
T2 sequence (P27694 whole entry, chain 1 of 3): as the sequence (P27694 whole entry S384D, chain 1 of 3) above, with D384S counted along it
T2 sequence (P15927 whole entry, chain 2 of 3): as the sequence (P15927 whole entry, chain 2 of 3) above
T2 sequence (P35244 whole entry, chain 3 of 3): as the sequence (P35244 whole entry, chain 3 of 3) above

RPA (wild type) [3] = target: T2, RPA (wild type); assay: fluorescence anisotropy; stoichiometric binding; Stopped flow: 30 mM HEPES pH 7.8, 100 mM KCl, 5 mM MgCl2, 6% glycerol, 1 mM b-ME, 25 C; anisotropy: 50 mM Tris-acetate pH 7.5, 50 mM KCl, 5 mM MgCl2, 1 mM DTT; conditions: protein: recombinant; copies: 1;1;1; label: 5'-FAM
RPA S384D [4] = target: T1, RPA S384D; assay: fluorescence anisotropy; stoichiometric binding; same as WT; Stopped flow: 30 mM HEPES pH 7.8, 100 mM KCl, 5 mM MgCl2, 6% glycerol, 1 mM b-ME, 25 C; anisotropy: 50 mM Tris-acetate pH 7.5, 50 mM KCl, 5 mM MgCl2, 1 mM DTT; conditions: protein: recombinant; copies: 1;1;1; label: 5'-FAM
RPA S384D [5] = target: T1, RPA S384D; assay: size exclusion chromatography; major 1:1, minor 2:1 protein:DNA; Stopped flow: 30 mM HEPES pH 7.8, 100 mM KCl, 5 mM MgCl2, 6% glycerol, 1 mM b-ME, 25 C; anisotropy: 50 mM Tris-acetate pH 7.5, 50 mM KCl, 5 mM MgCl2, 1 mM DTT; conditions: protein: recombinant; copies: 1;1;1
RPA (wild type) [6] = target: T2, RPA (wild type); assay: stopped-flow Trp fluorescence (koff/kon); kon 5.2e10 M-1 s-1, koff 39 s-1 as printed; Stopped flow: 30 mM HEPES pH 7.8, 100 mM KCl, 5 mM MgCl2, 6% glycerol, 1 mM b-ME, 25 C; anisotropy: 50 mM Tris-acetate pH 7.5, 50 mM KCl, 5 mM MgCl2, 1 mM DTT; conditions: protein: recombinant; copies: 1;1;1

Row | Binder | binding result (RPA (wild type) [3]) | binding result (RPA S384D [4]) | further results
1 | B1 |  |  | binding result (RPA S384D [1]): binds; binding result (RPA (wild type) [2]): binds
2 | TTTTTTTTTTTTTTTTTTTTTTTTTTTTTTTTTTTTTTTT (ssDNA) [5'-FAM-(dT)40] | binds | binds | 
3 | TTTTTTTTTTTTTTTTTTTTTTTTTTTTTTTTTTT (ssDNA) [(dT)35] |  |  | binding result (RPA S384D [5]): binds; Kd (RPA (wild type) [6]): 0.75 ± 0.4 nM
4 | TTTTTTTTTTTTTTTTTTTT (ssDNA) [5'-FAM-(dT)20] | binds | binds | 
